Paper PMC4239610, “A Peptide Derived from G0/G1 Switch Gene 2 Acts as Noncompetitive Inhibitor of Adipose Triglyceride Lipase” (The Journal of Biological Chemistry, 2014)
Values belong to the molecule of their own block, whether it stands above or below them.

What was measured:
[1] = tested on: mATGL; assay: TG hydrolase activity, E. coli expressed mATGL, CGI-58 activated, hG0S2 truncations (Fig. 1C-E); assay type: biochemical, mouse; conditions: mATGL E. coli extract (50 μg), 2.5 μg purified mCGI-58, 30 μg lysate of E. coli expressing hG0S2 variant, [3H]triolein, triplicates
Method: Protein concentrations were determined as described below.
FIGURE 1. Minimal sequence requirements of human G0S2 for ATGL inhibition. A, graphical representation of full-length and shortened versions of hG0S2, those capable of inhibiting ATGL activity are illustrated in black. The largely hydrophobic sequence stretch from Val-28 to Met-42 is depicted in light gray. B–E, activity assays were performed in the presence of CGI-58 as indicated by an asterisk (ATGL*). G0S2 and variants thereof were expressed in E. coli and added as cell lysates. Overexpressed mATGL from E. coli lysates was used for all assays with the exception of the assay shown in B. B, inhibition of TG hydrolase activity of mATGL containing COS-7 cell extracts by WT and C-terminally truncated hG0S2 variants. C, inhibition of TG hydrolase activity of mATGL by WT and C-terminally truncated hG0S2 variants. D, inhibition of TG hydrolase activity of mATGL by WT hG0S2 and variants with N-terminal deletions. E, effect of different N- and C-terminal truncations in hG0S2 on mATGL activity. The fusion tag smt3 is shown as control.

[2] = biological target: mATGL (Mus musculus, UniProt Q8BJ56); assay: TG hydrolase activity of CGI-58-stimulated mATGL (mATGL*) expressed in E. coli; conditions: read-out: half-maximal inhibitory concentration (IC50), CGI-58-stimulated ATGL; mATGL from E. coli (25 μg lysate protein) with 2.5 μg mCGI-58; [3H]triolein substrate; triplicates; Fig. 2E (hGW2052), 2F (WT hG0S2)
Method: The peptides were dissolved in 100% DMSO, and concentrations were determined via the absorbance at 280 nm. The final DMSO concentration in the activity assay was ≤1%. The control peptide was prepared the same way.
TG hydrolase activity assay was performed as described ([45]). To screen for the inhibitory capacity of various hG0S2 truncations, 30 μg of protein of cell lysates were incubated with the [^3H]triolein substrate together with 50 μg of cell extract of Strep-mATGL (or COS-7-mATGL) and 2.5 μg of purified mCGI-58. As a control, lysates of the His6-Smt tag were incubated under the same conditions. […] TG substrate was prepared with 1.67 mM triolein, 10 μCi/ml [9,10-^3H]triolein (PerkinElmer Life Sciences), and 190 μM phosphatidylcholine/phosphatidylinositol (3:1) (Sigma) and diluted to the respective concentrations after sonication. Assays with CGI-58 co-activated ATGL were performed on a smaller scale. […] Lysates using LacZ-expressing cells were used as controls. The reaction was terminated by adding 650 μl of methanol/chloroform/heptane (10:9:7) and 200 μl of 100 mM potassium carbonate buffer, pH 10.5 (adjusted with boric acid). The radioactivity in 200 μl of the upper phase (450 μl in total) was determined by liquid scintillation counting.

[3] = tested on: ATGL; conditions: cited from earlier work
Text: Activation of ATGL by CGI-58 is considered as fasting response upon β-adrenergic stimulation and phosphorylation of PKA ([12]). Recent studies have strengthened the role of G0S2 as the so-called master regulator of basal and stimulated lipolysis ([27]). mRNA levels of G0S2 respond strongly to hormonal stimuli, yet the dose-dependent inhibition of ATGL by G0S2 itself is reported to be independent of phosphorylation events ([18], [20], [21], [28], [29]). Thus, regulation of the expression levels of G0S2, and consequently the protein concentration, resembles a potent mean to regulate lipid mobili ... || Structural knowledge on ATGL is very limited. It is predicted to exert lipolytic activity via a catalytic dyad that resides in the patatin domain within the N-terminal half of the lipase ([7], [50]). […] In contrast, Atglis ...

[4] = tested on: ATGL; conditions: cited from earlier work; remark: listed apart in the source
Text: Extensive research on the physiological role of ATGL has identified complex regulatory mechanisms for its activity on the transcriptional and post-translational level ([12], [13]). Direct protein-protein interaction of ATGL with the protein comparative gene identification 58 (CGI-58) increases ATGL activity up to 20-fold ([14]). Inhibition of ATGL due to direct interaction with the small, 103-amino acid protein G0/G1 switch gene 2 (G0S2) was discovered in 2010 and confirmed using human and murine proteins ([15][–][21]). The highest G0S2 expression is found in adipose tissues, but it is also pr ... || Activation of ATGL by CGI-58 is considered as fasting response upon β-adrenergic stimulation and phosphorylation of PKA ([12]). Recent studies have strengthened the role of G0S2 as the so-called master regulator of basal and stimulated lipolysis ([27]). mRNA levels of G0S2 respond strongly to hormonal stimuli, yet the dose-dependent inhibition of ATGL by G0S2 itself is reported to be independent of phosphorylation events ([18], [20], [21], [28], [29]). Thus, regulation of the expression levels of G0S2, and consequently the protein concentration, resembles a potent mean to regulate lipid mobili ... || Next, we investigated the specificity of the peptide hGW2052. ATGL and HSL together account for more than 95% of intracellular TG hydrolase activity in white adipose tissue (WAT) ([48]). […]

Chain of mATGL (Mus musculus, UniProt Q8BJ56) (Q8BJ56 whole entry): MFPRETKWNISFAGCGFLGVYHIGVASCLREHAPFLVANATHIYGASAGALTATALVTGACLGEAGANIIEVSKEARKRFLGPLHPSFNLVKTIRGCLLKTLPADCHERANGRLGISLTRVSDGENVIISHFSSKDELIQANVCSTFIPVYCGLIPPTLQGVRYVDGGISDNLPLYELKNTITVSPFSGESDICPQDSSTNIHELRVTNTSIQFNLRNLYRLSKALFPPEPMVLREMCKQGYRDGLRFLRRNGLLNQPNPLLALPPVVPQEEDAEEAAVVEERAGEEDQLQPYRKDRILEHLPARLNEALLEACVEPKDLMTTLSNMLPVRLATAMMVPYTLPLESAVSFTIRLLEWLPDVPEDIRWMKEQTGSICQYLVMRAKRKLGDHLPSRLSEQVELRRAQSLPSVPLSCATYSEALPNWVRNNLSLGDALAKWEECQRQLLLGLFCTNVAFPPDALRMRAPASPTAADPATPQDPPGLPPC
Chain of mATGL (Mus musculus, UniProt Q8BJ56) (Q9DBL9 whole entry partner): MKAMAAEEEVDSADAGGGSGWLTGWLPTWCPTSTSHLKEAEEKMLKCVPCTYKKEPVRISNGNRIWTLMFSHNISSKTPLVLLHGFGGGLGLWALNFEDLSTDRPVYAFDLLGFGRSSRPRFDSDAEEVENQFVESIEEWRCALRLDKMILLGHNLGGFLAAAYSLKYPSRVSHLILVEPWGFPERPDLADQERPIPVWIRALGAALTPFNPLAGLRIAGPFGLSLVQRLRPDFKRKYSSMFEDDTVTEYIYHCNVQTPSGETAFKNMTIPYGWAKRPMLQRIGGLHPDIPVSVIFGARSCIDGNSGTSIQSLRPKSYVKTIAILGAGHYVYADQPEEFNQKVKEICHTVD

B1: G0S2 truncated after residue Gly-30: Truncation of G0S2 after residue Gly-30 (N-terminal) (protein, UniProt P27469 30-103, looked up, fragment)
chain: GSVLALFGVVLGLMETVCSPFTAARRLRDQEAAVAELQAALERQALQKQALQEKGKQQDTVLGGRALSNRQHAS
inhibition of TG hydrolase activity (result in words) [1]: complete loss of the capacity to inhibit ATGL

IC50 [2]: 19 nM
B2: hG0S2: full-length human G0S2, 103-amino acid protein, expressed in E. coli (protein)
chain: METVQELIPLAKEMMAQKRKGKMVKLYVLGSVLALFGVVLGLMETVCSPFTAARRLRDQEAAVAELQAALERQALQKQALQEKGKQQDTVLGGRALSNRQHAS
modifications: left off: His6, N-terminal, cleaved | Smt, N-terminal, cleaved
notes: full-length human G0S2, 103-amino acid protein, expressed in E. coli
site of interaction with ATGL ([3]; ref [15]): interacts with the N-terminal catalytic domain of ATGL

B3: G0S2 Met-1–Gln-73: truncated variant of G0S2 encompassing the residues Met-1–Gln-73 (protein, UniProt P27469 1-73, looked up, fragment)
chain: METVQELIPLAKEMMAQKRKGKMVKLYVLGSVLALFGVVLGLMETVCSPFTAARRLRDQEAAVAELQAALERQ
interaction with ATGL ([3]; ref [20]): interacts with ATGL
inhibition of ATGL (in words) ([4]; truncated/deleted G0S2 variants, ref [20]): inhibits the enzyme

B4: hG0S2_27–103: N-terminally truncated hG0S2 until residue Tyr-27 (protein, UniProt P27469 27-103, looked up, fragment)
chain: YVLGSVLALFGVVLGLMETVCSPFTAARRLRDQEAAVAELQAALERQALQKQALQEKGKQQDTVLGGRALSNRQHAS
inhibition of TG hydrolase activity (result in words) [1]: fully inhibit ATGL activity
inhibition of TG hydrolase activity (result in words) ([1]; listed as Tyr-27–Ser-103): fully able to inhibit ATGL

B5: CGI-58: comparative gene identification 58, protein co-activator of ATGL (protein, UniProt Q8WTS1 2-349, looked up)
1-acylglycerol-3-phosphate …: AAEEEEVDSADTGERSGWLTGWLPTWCPTSISHLKEAEEKMLKCVPCTYKKEPVRISNGNKIWTLKFSHNISNKTPLVLLHGFGGGLGLWALNFGDLCTNRPVYAFDLLGFGRSSRPRFDSDAEEVENQFVESIEEWRCALGLDKMILLGHNLGGFLAAAYSLKYPSRVNHLILVEPWGFPERPDLADQDRPIPVWIRALGAALTPFNPLAGLRIAGPFGLSLVQRLRPDFKRKYSSMFEDDTVTEYIYHCNVQTPSGETAFKNMTIPYGWAKRPMLQRIGKMHPDIPVSVIFGARSCIDGNSGTSIQSLRPHSYVKTIAILGAGHYVYADQPEEFNQKVKEICDTVD
increase of ATGL activity ([4]; direct protein-protein interaction with ATGL, ref [14]): up to 20 fold
